Experimental findings from patent US20090208995 are described below.

Data set [1] deals with Pro-CE derived from a horseshoe crab hemocyte extract (DS-10AII fraction).
Data set [2] deals with T1, recombinant Pro-CE (pro-clotting enzyme, His-Tag at the C-terminus, expressed in expresSF+ insect cells).
T1 sequence: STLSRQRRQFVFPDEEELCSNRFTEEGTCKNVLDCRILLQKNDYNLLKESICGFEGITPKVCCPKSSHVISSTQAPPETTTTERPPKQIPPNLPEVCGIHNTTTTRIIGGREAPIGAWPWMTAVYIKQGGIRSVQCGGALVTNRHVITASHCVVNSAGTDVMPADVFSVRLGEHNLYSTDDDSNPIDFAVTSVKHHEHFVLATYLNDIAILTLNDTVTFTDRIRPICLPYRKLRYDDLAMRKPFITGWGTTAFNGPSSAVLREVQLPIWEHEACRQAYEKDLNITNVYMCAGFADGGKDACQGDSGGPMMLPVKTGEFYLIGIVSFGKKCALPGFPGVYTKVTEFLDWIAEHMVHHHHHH

For data set [3], the target named is T2, recombinant Pro-CE (pro-clotting enzyme, His-Tag at the C-terminus, expressed in expresSF+ insect cells).
T2 chain: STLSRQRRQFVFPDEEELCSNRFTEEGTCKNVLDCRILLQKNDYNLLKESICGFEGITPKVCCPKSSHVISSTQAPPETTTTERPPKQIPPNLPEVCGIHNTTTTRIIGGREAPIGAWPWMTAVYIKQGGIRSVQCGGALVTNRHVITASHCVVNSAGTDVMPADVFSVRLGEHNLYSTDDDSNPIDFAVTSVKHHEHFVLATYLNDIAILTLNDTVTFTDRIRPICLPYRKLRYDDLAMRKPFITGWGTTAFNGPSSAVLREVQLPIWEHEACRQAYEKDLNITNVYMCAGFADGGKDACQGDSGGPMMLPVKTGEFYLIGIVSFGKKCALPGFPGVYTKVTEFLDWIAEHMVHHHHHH

For data set [4], the target named is T3, recombinant factor B (His-Tag at the C-terminus; culture supernatant, MOI = 0.1, 96 h).
T3 chain: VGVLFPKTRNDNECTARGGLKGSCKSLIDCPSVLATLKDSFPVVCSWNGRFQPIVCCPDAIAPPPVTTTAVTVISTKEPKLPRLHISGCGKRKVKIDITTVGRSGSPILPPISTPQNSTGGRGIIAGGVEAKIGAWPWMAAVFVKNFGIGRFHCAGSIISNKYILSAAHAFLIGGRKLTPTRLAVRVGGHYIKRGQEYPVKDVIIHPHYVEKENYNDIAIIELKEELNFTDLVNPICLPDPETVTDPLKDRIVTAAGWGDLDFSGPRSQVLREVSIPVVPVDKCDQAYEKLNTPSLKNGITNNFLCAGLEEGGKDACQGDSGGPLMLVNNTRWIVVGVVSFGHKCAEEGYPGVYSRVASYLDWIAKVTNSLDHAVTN

Turning to “Factor G derived from a horseshoe crab hemocyte extract (DS-3GII fraction)”, in data set [1], the Reactivity, Average; CSBG 0 ng/mL (A 405 to 492 nm) was found to be 0.058; the Reactivity, Average; CSBG 1 ng/mL (A 405 to 492 nm) is 0.437; the Reactivity, Average; CSBG 10 ng/mL (A 405 to 492 nm) came out at 0.986; the Reactivity, endpoint assay, Boc-Leu-Gly-Arg-pNA; CSBG 0 ng/mL, first reading (A 405 to 492 nm) came to 0.056. In data set [1], this molecule showed a Reactivity, endpoint assay, Boc-Leu-Gly-Arg-pNA; CSBG 0 ng/mL, second reading (A 405 to 492 nm) of 0.06; a Reactivity, endpoint assay, Boc-Leu-Gly-Arg-pNA; CSBG 1 ng/mL, first reading (A 405 to 492 nm) of 0.44; a Reactivity, endpoint assay, Boc-Leu-Gly-Arg-pNA; CSBG 1 ng/mL, second reading (A 405 to 492 nm) of 0.434; a Reactivity, endpoint assay, Boc-Leu-Gly-Arg-pNA; CSBG 10 ng/mL, first reading (A 405 to 492 nm) of 0.969. Besides, in data set [1], the Reactivity, endpoint assay, Boc-Leu-Gly-Arg-pNA; CSBG 10 ng/mL, second reading (A 405 to 492 nm) came to 1; the Reactivity, ΔA; CSBG 1 ng/mL (A 405 to 492 nm) worked out at 0.379; the Reactivity, ΔA; CSBG 10 ng/mL (A 405 to 492 nm) turned out to be 0.928. In data set [2], the Reactivity, Average; CSBG 0 ng/mL (A 405 to 492 nm) is 0.05; the Reactivity, Average; CSBG 1 ng/mL (A 405 to 492 nm) amounted to 0.484; the Reactivity, Average; CSBG 10 ng/mL (A 405 to 492 nm) was found to be 0.987; the Reactivity, endpoint assay, Boc-Leu-Gly-Arg-pNA; CSBG 0 ng/mL, first reading (A 405 to 492 nm) was 0.051. In addition, in data set [2], the Reactivity, endpoint assay, Boc-Leu-Gly-Arg-pNA; CSBG 0 ng/mL, second reading (A 405 to 492 nm) amounted to 0.049; the Reactivity, endpoint assay, Boc-Leu-Gly-Arg-pNA; CSBG 1 ng/mL, first reading (A 405 to 492 nm) was 0.48; the Reactivity, endpoint assay, Boc-Leu-Gly-Arg-pNA; CSBG 1 ng/mL, second reading (A 405 to 492 nm) came out at 0.487; the Reactivity, endpoint assay, Boc-Leu-Gly-Arg-pNA; CSBG 10 ng/mL, first reading (A 405 to 492 nm) came out at 0.988. Further, in data set [2], the Reactivity, endpoint assay, Boc-Leu-Gly-Arg-pNA; CSBG 10 ng/mL, second reading (A 405 to 492 nm) stood at 0.986; the Reactivity, ΔA; CSBG 1 ng/mL (A 405 to 492 nm) was found to be 0.434; the Reactivity, ΔA; CSBG 10 ng/mL (A 405 to 492 nm) amounted to 0.937; the “enzymatic activity with DS-3GII fraction and BG” value is listed as “the recombinant Pro-CE exhibited an enzymatic activity almost equivalent to that of Pro-CE derived from a horseshoe crab hemocyte extract”.
On to “recombinant factor G (culture supernatant; alpha-subunit:beta-subunit = 2:1)”, for which, in data set [2], the Reactivity, Average; CSBG 0 ng/mL came out at 0.078; the Reactivity, Average; CSBG 1 ng/mL amounted to 0.139; the Reactivity, Average; CSBG 10 ng/mL is 0.532; the Reactivity, endpoint assay, Boc-Leu-Gly-Arg-pNA; CSBG 0 ng/mL, first reading was determined as 0.079. In data set [2], the Reactivity, endpoint assay, Boc-Leu-Gly-Arg-pNA; CSBG 0 ng/mL, second reading worked out at 0.076; the Reactivity, endpoint assay, Boc-Leu-Gly-Arg-pNA; CSBG 1 ng/mL, first reading turned out to be 0.14; the Reactivity, endpoint assay, Boc-Leu-Gly-Arg-pNA; CSBG 1 ng/mL, second reading came to 0.138; the Reactivity, endpoint assay, Boc-Leu-Gly-Arg-pNA; CSBG 10 ng/mL, first reading was found to be 0.543. In data set [2], the Reactivity, endpoint assay, Boc-Leu-Gly-Arg-pNA; CSBG 10 ng/mL, second reading was found to be 0.52; the Reactivity, ΔA; CSBG 1 ng/mL is 0.061; the Reactivity, ΔA; CSBG 10 ng/mL is 0.454; the “hydrolysis of Boc-Leu-Gly-Arg-pNA in the complete reconstitution system with BG” value is reported as “the same enzymatic activity as that of native factor LAL was found to be expressed”.

B1: recombinant factor B (His-Tag at the C-terminus; culture supernatant, MOI = 0.1, 96 h) (protein)
chain: VGVLFPKTRNDNECTARGGLKGSCKSLIDCPSVLATLKDSFPVVCSWNGRFQPIVCCPDAIAPPPVTTTAVTVISTKEPKLPRLHISGCGKRKVKIDITTVGRSGSPILPPISTPQNSTGGRGIIAGGVEAKIGAWPWMAAVFVKNFGIGRFHCAGSIISNKYILSAAHAFLIGGRKLTPTRLAVRVGGHYIKRGQEYPVKDVIIHPHYVEKENYNDIAIIELKEELNFTDLVNPICLPDPETVTDPLKDRIVTAAGWGDLDFSGPRSQVLREVSIPVVPVDKCDQAYEKLNTPSLKNGITNNFLCAGLEEGGKDACQGDSGGPLMLVNNTRWIVVGVVSFGHKCAEEGYPGVYSRVASYLDWIAKVTNSLDHAVTN
As for B1, in data set [3], the Reactivity, Av.; sample (A) PCE + FB + FC (factor C also present), Et 0 ng/mL (A405 to 492 nm) is 0.023; the Reactivity, Av.; sample (A) PCE + FB + FC (factor C also present), Et 100 ng/mL (A405 to 492 nm) is 0.649; the Reactivity, Av.; sample (B) PCE + FB, Et 0 ng/mL (A405 to 492 nm) is 0.023; the Reactivity, Av.; sample (B) PCE + FB, Et 100 ng/mL (A405 to 492 nm) came out at 0.023. Besides, in data set [3], the Reactivity; sample (A) PCE + FB + FC (factor C also present), Et 0 ng/mL, first reading (A405 to 492 nm) is 0.024; the Reactivity; sample (A) PCE + FB + FC (factor C also present), Et 0 ng/mL, second reading (A405 to 492 nm) was determined as 0.022; the Reactivity; sample (A) PCE + FB + FC (factor C also present), Et 100 ng/mL, first reading (A405 to 492 nm) was determined as 0.652; the Reactivity; sample (A) PCE + FB + FC (factor C also present), Et 100 ng/mL, second reading (A405 to 492 nm) was 0.645. Further, in data set [3], the Reactivity; sample (B) PCE + FB, Et 0 ng/mL, first reading (A405 to 492 nm) came to 0.023; the Reactivity; sample (B) PCE + FB, Et 0 ng/mL, second reading (A405 to 492 nm) amounted to 0.022; the Reactivity; sample (B) PCE + FB, Et 100 ng/mL, first reading (A405 to 492 nm) stood at 0.022; the Reactivity; sample (B) PCE + FB, Et 100 ng/mL, second reading (A405 to 492 nm) worked out at 0.023. In data set [3], the “hydrolysis of Boc-Leu-Gly-Arg-pNA in the complete reconstitution system with Et (factor C also present)” value was “cascade reaction of Et proceeds in a concentration-dependent manner through employment of recombinant factors C and B and recombinant Pro-CE in combination”; the “hydrolysis of Boc-Leu-Gly-Arg-pNA in the presence of Et at high concentration, without factor C” value is “in the samples containing recombinant Pro-CE and/or recombinant factor B, activation attributed to high concentration Et was not observed”.

B2: recombinant factor C (derived from Tachypleus rotundicauda), commercial element of PyroGene (product of Cambrex) (protein)
chain: KGVDLGLCDETRFECKCGDPGYVFNIPVKQCTYFYRWRPYCKPCDDLEAKDICPKYKRCQECKAGLDSCVTCPPNKYGTWCSGECQCKNGGICDQRTGACACRDRYEGVHCEILKGCPLLPSDSQVQEVRNPPDNPQTIDYSCSPGFKLKGMARISCLPNGQWSNFPPKCIRECAMVSSPEHGKVNALSGDMIEGATLRFSCDSPYYLIGQETLTCQGNGQWNGQIPQCKNLVFCPDLDPVNHAEHKVKIGVEQKYGQFPQGTEVTYTCSGNYFLMGFDTLKCNPDGSWSGSQPSCVKVADREVDCDSKAVDFLDDVGEPVRIHCPAGCSLTAGTVWGTAIYHELSSVCRAAIHAGKLPNSGGAVHVVNNGPYSDFLGSDLNGIKSEELKSLARSFRFDYVRSSTAGKSGCPDGWFEVDENCVYVTSKQRAWERAQGVCTNMAARLAVLDKDVIPNSLTETLRGKGLTTTWIGLHRLDAEKPFIWELMDRSNVVLNDNLTFWASGEPGNETNCVYMDIQDQLQSVWKTKSCFQPSSFACMMDLSDRNKAKCDDPGSLENGHATLHGQSIDGFYAGSSIRYSCEVLHYLSGTETVTCTTNGTWSAPKPRCIKVITCQNPPVPSYGSVEIKPPSRTNSISRVGSPFLRLPRLPLPLARAAKPPPKPRSSQPSTVDLASKVKLPEGHYRVGSRAIYTCESRYYELLGSQGRRCDSNGNWSGRPASCIPVCGRSDSPRSPFIWNGNSTEIGQWPWQAGISRWLADHNMWFLQCGGSLLNEKWIVTAAHCVTYSATAEIIDPNQFKMYLGKYYRDDSRDDDYVQVREALEIHVNPNYDPGNLNFDIALIQLKTPVTLTTRVQPICLPTDITTREHLKEGTLAVVTGWGLNENNTYSETIQQAVLPVVAASTCEEGYKEADLPLTVTENMFCAGYKKGRYDACSGDSGGPLVFADDSRTERRWVLEGIVSWGSPSGCGKANQYGGFTKVNVFLSWIRQFI
Consider B2, for which, in data set [3], the Reactivity, Av.; sample (C) PCE + FC, Et 0 ng/mL (A405 to 492 nm) is 0.02; the Reactivity, Av.; sample (C) PCE + FC, Et 100 ng/mL (A405 to 492 nm) stood at 0.03; the Reactivity; sample (C) PCE + FC, Et 0 ng/mL, first reading (A405 to 492 nm) was determined as 0.02; the Reactivity; sample (C) PCE + FC, Et 0 ng/mL, second reading (A405 to 492 nm) is 0.02. In addition, in data set [3], the Reactivity; sample (C) PCE + FC, Et 100 ng/mL, first reading (A405 to 492 nm) was found to be 0.029 and the Reactivity; sample (C) PCE + FC, Et 100 ng/mL, second reading (A405 to 492 nm) amounted to 0.03. In data set [4], the Reactivity, Av.; sample (D) FB + FC, Et 0 ng/mL (A405 to 492 nm) is 0.025; the Reactivity, Av.; sample (D) FB + FC, Et 100 ng/mL (A405 to 492 nm) is 0.033; the Reactivity; sample (D) FB + FC, Et 0 ng/mL, first reading (A405 to 492 nm) worked out at 0.024; the Reactivity; sample (D) FB + FC, Et 0 ng/mL, second reading (A405 to 492 nm) was found to be 0.025. In data set [4], the Reactivity; sample (D) FB + FC, Et 100 ng/mL, first reading (A405 to 492 nm) stood at 0.032; the Reactivity; sample (D) FB + FC, Et 100 ng/mL, second reading (A405 to 492 nm) was 0.034; the “hydrolysis of Boc-Leu-Gly-Arg-pNA in the complete reconstitution system with Et (Pro-CE also present)” value is “cascade reaction of Et proceeds in a concentration-dependent manner through employment of recombinant factors C and B and recombinant Pro-CE in combination”.
